Data: article PMC3570547, “An Experimental Verification of the Predicted Effects of Promoter TATA-Box Polymorphisms Associated with Human Diseases on Interactions between the TATA Boxes and TATA-Binding Protein”

Target: TBP (TATA-binding protein, hTBP) (Homo sapiens, UniProt P20226 1-339)
Assay: EMSA; Fixed active TBP (typically 0.3 nM) titrated with 32P dsDNA to equilibrium; buffer, salt, pH and temperature not given in the material
Conditions: protein: recombinant; label: 32P both strands; blunt

TBP (TATA-binding protein, hTBP), sequence (P20226 whole entry): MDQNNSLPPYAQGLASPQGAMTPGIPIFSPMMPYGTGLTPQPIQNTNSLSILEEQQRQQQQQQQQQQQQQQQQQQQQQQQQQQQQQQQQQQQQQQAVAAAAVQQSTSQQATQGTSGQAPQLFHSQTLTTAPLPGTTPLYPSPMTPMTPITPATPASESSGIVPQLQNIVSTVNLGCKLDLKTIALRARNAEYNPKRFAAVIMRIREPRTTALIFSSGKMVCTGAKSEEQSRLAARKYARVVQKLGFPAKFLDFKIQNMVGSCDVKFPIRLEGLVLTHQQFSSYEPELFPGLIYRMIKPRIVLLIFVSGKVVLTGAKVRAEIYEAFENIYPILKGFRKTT

Binder | Kd [µM]
IL1B -31C>T (dsDNA) DNA 1: TTTTGAAAGCTATAAAAACAGCGAGG DNA 2: CCTCGCTGTTTTTATAGCTTTCAAAA | 0.007 ± 0.001
HBB -27A>T (dsDNA) DNA 1: CAGGGCTGGGCATAATAGTCAGGGCA DNA 2: TGCCCTGACTATTATGCCCAGCCCTG | 0.064 ± 0.003
NOS2A TATA WT (dsDNA) DNA 1: ATGGGGTGAGTATAAATACTTCTTGG DNA 2: CCAAGAAGTATTTATACTCACCCCAT | 0.0018 ± 0.0002
NOS2A -21T>C (dsDNA) DNA 1: ATGGGGTGAGTATAAATACCTCTTGG DNA 2: CCAAGAGGTATTTATACTCACCCCAT | 0.0016 ± 0.0003
globin pseudogene -70T>C (dsDNA) DNA 1: CTGCCACACCCACATTATCAGAAAAT DNA 2: ATTTTCTGATAATGTGGGTGTGGCAG | 0.112 ± 0.006
HBB -29A>G (dsDNA) DNA 1: CAGGGCTGGGCATGAAAGTCAGGGCA DNA 2: TGCCCTGACTTTCATGCCCAGCCCTG | 0.39 ± 0.02
CYP2A6 -48T>G (dsDNA) DNA 1: TTTCAGGCAGTAGAAAGGCAAACCAC DNA 2: GTGGTTTGCCTTTCTACTGCCTGAAA | 0.08 ± 0.02
HBD -31A>G (dsDNA) DNA 1: ACAGGACCAGCGTAAAAGGCAGGGCA DNA 2: TGCCCTGCCTTTTACGCTGGTCCTGT | 0.12 ± 0.01
IL1B TATA WT (dsDNA) DNA 1: TTTTGAAAGCCATAAAAACAGCGAGG DNA 2: CCTCGCTGTTTTTATGGCTTTCAAAA | 0.029 ± 0.004
globin pseudogene TATA WT (dsDNA) DNA 1: CTGCCACACCCACATTATTAGAAAAT DNA 2: ATTTTCTAATAATGTGGGTGTGGCAG | 0.152 ± 0.006
HBD TATA WT (dsDNA) DNA 1: ACAGGACCAGCATAAAAGGCAGGGCA DNA 2: TGCCCTGCCTTTTATGCTGGTCCTGT | 0.046 ± 0.005
SOD1 -27A>G (dsDNA) DNA 1: AGGTCTGGCCTGTAAAGTAGTCGCGG DNA 2: CCGCGACTACTTTACAGGCCAGACCT | 0.17 ± 0.03
TPI -24T>G (dsDNA) DNA 1: CGCGGCGCTCTATAGAAGTGGGCAGT DNA 2: ACTGCCCACTTCTATAGAGCGCCGCG | 0.15 ± 0.02
HBB -28A>G (dsDNA) DNA 1: CAGGGCTGGGCATAGAAGTCAGGGCA DNA 2: TGCCCTGACTTCTATGCCCAGCCCTG | 0.087 ± 0.008
SOD1 TATA WT (dsDNA) DNA 1: AGGTCTGGCCTATAAAGTAGTCGCGG DNA 2: CCGCGACTACTTTATAGGCCAGACCT | 0.04 ± 0.008
TF -21C>T (dsDNA) DNA 1: GCCGGCCCTTTATAGTGCGCGGGGCA DNA 2: TGCCCCGCGCACTATAAAGGGCCGGC | 0.026 ± 0.003
HBB -31A>G (dsDNA) DNA 1: CAGGGCTGGGCGTAAAAGTCAGGGCA DNA 2: TGCCCTGACTTTTACGCCCAGCCCTG | 0.099 ± 0.009
HBB -30T>C (dsDNA) DNA 1: CAGGGCTGGGCACAAAAGTCAGGGCA DNA 2: TGCCCTGACTTTTGTGCCCAGCCCTG | 0.111 ± 0.008
TF TATA WT (-21C) (dsDNA) DNA 1: GCCGGCCCTTTATAGCGCGCGGGGCA DNA 2: TGCCCCGCGCGCTATAAAGGGCCGGC | 0.072 ± 0.009
CYP2A6 TATA WT (dsDNA) DNA 1: TTTCAGGCAGTATAAAGGCAAACCAC DNA 2: GTGGTTTGCCTTTATACTGCCTGAAA | 0.017 ± 0.004
HBB -28A>C (dsDNA) DNA 1: CAGGGCTGGGCATACAAGTCAGGGCA DNA 2: TGCCCTGACTTGTATGCCCAGCCCTG | 0.3 ± 0.02
HBB TATA WT (dsDNA) DNA 1: CAGGGCTGGGCATAAAAGTCAGGGCA DNA 2: TGCCCTGACTTTTATGCCCAGCCCTG | 0.044 ± 0.003
TPI TATA WT (dsDNA) DNA 1: CGCGGCGCTCTATATAAGTGGGCAGT DNA 2: ACTGCCCACTTATATAGAGCGCCGCG | 0.0048 ± 0.0007
MBL2 TATA WT (dsDNA) DNA 1: CATCTATTTCTATATAGCCTGCACCC DNA 2: GGGTGCAGGCTATATAGAAATAGATG | 0.028 ± 0.004
HBB -30T>A (dsDNA) DNA 1: CAGGGCTGGGCAAAAAAGTCAGGGCA DNA 2: TGCCCTGACTTTTTTGCCCAGCCCTG | 0.116 ± 0.005
FIX TATA WT (dsDNA) DNA 1: ACAGCTCAGCTTGTACTTTGGTACAA DNA 2: TTGTACCAAAGTACAAGCTGAGCTGT | 0.51 ± 0.06
MBL2 -35T>C (dsDNA) DNA 1: CATCTATTTCTACATAGCCTGCACCC DNA 2: GGGTGCAGGCTATGTAGAAATAGATG | 0.058 ± 0.009
